Here are results for 12 molecules from patent US20240252641A1 (TCR2 THERAPEUTICS, published 2024).

By Kd is commonly meant the free concentration of one partner at which half of the binding sites on the other are occupied at equilibrium, for simple one-to-one binding. As a reminder, the koff is the first-order rate constant of dissociation. Broadly, the kon is the second-order rate constant of association. Lower therefore signals slower complex formation.

For experiment [1], the target named is T1, CD70 on cells (CHO-CD70, JVM-3, U266, Raji, THP-1, T cells) (human, UniProt P32970 1-193).
T1 construct: whole, on cells; also called cell-surface CD70
T1 sequence (looked up): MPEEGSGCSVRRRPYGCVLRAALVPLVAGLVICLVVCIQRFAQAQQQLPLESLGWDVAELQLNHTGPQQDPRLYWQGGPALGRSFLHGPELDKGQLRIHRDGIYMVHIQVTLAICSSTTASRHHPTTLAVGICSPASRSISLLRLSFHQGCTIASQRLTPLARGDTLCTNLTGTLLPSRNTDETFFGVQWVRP
The experiment in a line: on U266 cells.

Experiment [2] concerns the target T1, CD70 on cells (CHO-CD70, JVM-3, U266, …). The experiment in a line: on Raji cells.
For experiment [3] the target is unchanged. The experiment in a line: on JVM-3 cells.
Experiment [4] concerns the target T2, CD70 (UniProt P32970 39-193, limits assumed).
T2 construct: also called CD70 (100 nM)
T2 sequence (looked up): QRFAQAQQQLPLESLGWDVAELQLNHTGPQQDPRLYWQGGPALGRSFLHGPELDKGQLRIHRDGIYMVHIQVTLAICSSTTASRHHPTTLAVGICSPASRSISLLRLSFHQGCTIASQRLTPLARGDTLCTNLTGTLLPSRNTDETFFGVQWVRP
Nature of the experiment: Octet (BLI); mAb binding to CD70 with CD27 (competitor CD27). (In general: In BLI a coated tip is dipped into the sample, and binding shifts an interference pattern.)

The target in experiment [5] is T2, CD70. The experiment in a line: Octet (BLI); hybridoma mAb, CD70 at 100 nM.
The target in experiment [6] is T1, CD70 on cells (CHO-CD70, JVM-3, U266, …). Nature of the experiment: 1.25 µg/mL scFv on CHO-CD70 cells. The essentials:
(§1)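 Human scFv antibodies were raised by panning a naïve human library against the CD70 extracellular domain (aa39-193). They were tested for binding to tumour cell lines with high CD70 expression (CHO-CD70, JVM3, U266) and low CD70 expression (CHO WT, K562). Cell binding was recorded per cell line, and the detection method is not stated.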

In experiment [7] the target is T3, human CD70, recombinant, N-terminally biotinylated (residues 39-193) (human, UniProt P32970 39-193, N-terminal biotin).
T3 construct: range 39-193; the same entry is used there; also called biotinylated human CD70; CD70 biotin
T3 sequence (looked up): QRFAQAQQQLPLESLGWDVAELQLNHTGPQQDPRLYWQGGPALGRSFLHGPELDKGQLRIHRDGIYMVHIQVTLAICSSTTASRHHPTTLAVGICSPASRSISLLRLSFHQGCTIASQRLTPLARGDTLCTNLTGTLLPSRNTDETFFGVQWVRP
The experiment in a line: SPR. The essentials:
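Human scFv antibodies came from panning a naïve human library against the CD70 extracellular domain (aa39-193). Their affinity (Kd) for recombinant, N-terminally biotinylated human CD70 was measured by surface plasmon resonance (SPR) analysis.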
On the technique in general: Surface plasmon resonance follows binding to a sensor surface in real time, without labels.

For experiment [8], the target named is T3, human CD70, recombinant, N-terminally …. The experiment in a line: CD27 blocking ELISA, 3 µM scFv, anti-His/HRP. The essentials:
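Plate-bound CD70 was either exposed to CD27 and His-tagged scFv added together, or pre-incubated with CD27 for 30 minutes before more CD27 and scFv were added. scFv still bound to CD70 was detected with anti-His HRP.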
For orientation: An ELISA detects its analyte on a solid surface through an enzyme-linked reagent.

The target in experiment [9] is T1, CD70 on cells (CHO-CD70, JVM-3, U266, …). The experiment in a line: 1.25 µg/mL scFv on U266 cells. In outline: as §1
Experiment [10] shares this target. The experiment in a line: 1.25 µg/mL scFv on JVM-3 cells. The essentials: as §1
Experiment [11] deals with T3, human CD70, recombinant, N-terminally …. Nature of the experiment: CD27 blocking ELISA, 3 µM scFv, strep/HRP.

B1: 1E3 (antibody, V domains shown)
VH: QLQLQESGPGLVKPSETLSLTCTVSGASITSTSYYWNWIRQPPGKGLEWIGRISYSGSTYYNPSLKSRVTISVDTSKNQFSLKLSSVTATDTAVYYCARQIRYNWNPDTFDIWGQGTMVTVSS
VL: EIVMTQSPATLSVSPGERATLSCRASQSLNSNLAWYQQKPAQAPRLLIYGASTRATGIPARFSGSGSGTEFTLTISSLQSEDFAVYYCQQYDNWPLTFGGGTKVEIK
notes: alloy mouse hybridoma antibody; also called 1E3D9
On to B1, for which the cell binding was determined as 106000 in [1], 38800 in experiment [2] and 121000 in [3].

B2: 2F1 (antibody, V domains shown)
VH: EVQLVESGGVVVQPGGSLRLSCAASGFTFDDYTMHWVRQAPGKGLEWVSLVSWDGGSTYYADSVKGRFTTSRDNSKKFLYLQMNRLRTEDTALYFCAIDRAYRPYYYYHMDVWGKGTTVTVSS
VL: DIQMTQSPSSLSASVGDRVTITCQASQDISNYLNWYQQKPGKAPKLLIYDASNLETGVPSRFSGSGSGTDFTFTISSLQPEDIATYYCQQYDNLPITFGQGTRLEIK
notes: alloy mouse hybridoma antibody; also called 2F1F7
In the case of B2, the cell binding in experiment [1] was 30600; in [2], 12100; in experiment [3] it was 31600.

B3: 9B2 (antibody, V domains shown)
VH: QLQVVESGGGLMQPGGSLRLSCAASGFTFSGSAMSWVRQAPGKGLEWVSSIYSHSMYTYYADSVKSRFTISTDNAKNTLYLQMNSLKPDDTAVYYCAASSDYEGLFVSWGQGTQVTVSS
VL: QAVLTQPPSLSASPGSSVRLTCTLNSANSVGSYDISWYQQKAGSPPRYLLYYYSDSLSHQGSGVPSRFSGSTDASANAGLLLISGLQPEDEADYYCSAYNRGSHVFGGGTKLTVL
Turning to B3, the cell binding amounted to 8040 in experiment [1], 7310 in experiment [2] and 8940 in experiment [3].

B4: 13G6 (antibody, V domains shown)
VH: QVQLVESGGGVVQPGKSLRLSCAASGFTFSNYGIHWVRQAPGKGLEWVAVIWYDGSYKYYADSVKGRFTISRDNSKNTLYLQMNSLRAEDTALYYCARDTVDTYGSFDYWGQGTLVTVSS
VL: DIQLTQSPSFLSASVGDRVTITGRASQGISSYLAWYQQKPGKAPNLLIYAASTLQSGVPSRFSGSGSGTEFTLTISSLQPEDFATYYCQQHNRYPITFGQGTRLEIK
notes: alloy mouse hybridoma antibody; also called 13G6E8
As to B4, the cell binding in experiment [1] was determined as 389000; in experiment [2], 144000; in experiment [3] it was 479000.

B5: 13G6 (antibody, V domains shown)
VH: QVQLVESGGGVVQPGKSLRLSCAASGFTFSNYGIHWVRQAPGKGLEWVAVIWYDGSYKYYADSVKGRFTISRDNSKNTLYLQMNSLRAEDTALYYCARDTVDTYGSFDYWGQGTLVTVSS
VL: DIQLTQSPSFLSASVGDRVTITGRASQGISSYLAWYQQKPGKAPNLLIYAASTLQSGVPSRFSGSGSGTEFTLTISSLQPEDFATYYCQQHNRYPITFGQGTRLEIK
notes: IgG in hybridoma supernatant; also called 13G6E8
Turning to B5, in the experiment with CD70 [4], the “CD27:CD70 Interaction Neutralization of mAb Binding” value was determined as 0.0585. In the experiment with CD70 [5], this molecule registered a Kd of 0.00342 nM, a Response of 0.409, a koff of 3.3e-07 s⁻¹ and a kon of 96400 M⁻¹ s⁻¹.

B6: 4G7 (antibody, V domains shown)
VH: QVQLVESGGGVVQPGRSLRLSCAASGFTFSSYGLHWVRQAPGKGLDWVAVIWYDGSNKYYVDSVKGRFTISRDNSMNTLFLQMNSLRAEDTAVYYCARDEAAAAGAFDIWGQGTMVTVSS
VL: DIQLTQSPSFLSASVGDRVTITCRASQGISSYLAWYQQKPGKAPKLLIYAASTLQSGVPSRFSGSGSGTEFTLTISSLQPEDFATYYCQQLNYYSITFGQGTRLEIK
notes: alloy mouse hybridoma antibody; also called 4G7E8
As to B6, the cell binding was 310000 in [1], 103000 in experiment [2] and 322000 in experiment [3].

B7: 9A11 (9A11E8) (antibody, V domains shown)
VH: QVQLVESGGGVVQPGRSLRLSCAASGFTFSNYGMYWVRQAPGKGLEWVAVIWYDGSKKYYGDSVKGRFTISRDNSKNTLYLQMNSLRAEDTAVYYCARDEDTVMASFDYWGQGTLVTVSS
VL: DIQLTQSPSFLSASVGDRVTITCRASQDISIYLAWYQQKPGKAPQLLIYAASTLQSGVPSRFSGSGSGTEFTLTISSLQPEDFATYSCQQLNSYPITFGGGTKVEIK
notes: IgG in hybridoma supernatant
For the molecule B7, the “CD27:CD70 Interaction Neutralization of mAb Binding” value in the experiment with CD70 [4] worked out at 0.0777. In addition, in the experiment with CD70 [5], the Kd came to 0.00246 nM, the Response was 0.429, the koff was 3.36e-07 s⁻¹ and the kon was 137000 M⁻¹ s⁻¹.

B8: 9A11 (antibody, V domains shown)
VH: QVQLVESGGGVVQPGRSLRLSCAASGFTFSNYGMYWVRQAPGKGLEWVAVIWYDGSKKYYGDSVKGRFTISRDNSKNTLYLQMNSLRAEDTAVYYCARDEDTVMASFDYWGQGTLVTVSS
VL: DIQLTQSPSFLSASVGDRVTITCRASQDISIYLAWYQQKPGKAPQLLIYAASTLQSGVPSRFSGSGSGTEFTLTISSLQPEDFATYSCQQLNSYPITFGGGTKVEIK
notes: alloy mouse hybridoma antibody; also called 9A11E8
Turning to B8, the results for the cell binding in experiment [1], in [2] and in [3] were 351000, 145000 and 410000, respectively.

B9: 1-TC4-I-C10 (scFv)
scFv: EVQLVQSGAEVKKPGESLKISCKGSGYSFTSYWIGWVRQMPGKGLEWMGIIYPGDSDTRYSPSFQGQVTISADKSISTAYLQWSSLKASDTAMYYCAISRTESYVMDVWGQGTTVTVSSGGSGGSGGSGGSQSALTQPRSVSGSPGQSVTISCTGTSSDVGGYNYVSWYQQHPGKAPKLMIYDVTNRPSGVPDRFSASKSDNTATLTVSGVQAEDEADYYCSSYAGSHELFGGGTKLTVL
notes: His-tagged; also called 1867
Take B9: the figures for the cell binding in experiment [6], in experiment [9] and in [10] were 978000, 48800 and 73300, respectively. In experiment [7], the Kd stood at 6.17 nM. For the same molecule, in experiment [8], the “anti His/HRP” value is 2.83. Besides, the strep/HRP in [11] was determined as 0.075.

B10: 13-TC7-I-E11 (scFv)
scFv: QVQLQQWGAGLLKPSETLSLTCAVYGGSFSGYYWSWIRQPPGKGLEWIGEINHSGSTNYNPSLKSRVTISVDTSKNQFSLKLSSVTAADTAVYYCARSRRPYWYFDLWGRGTLVTVSSGGSGGSGGSGGSQSVLTQPPSVSGAPGQRVTISCTGSSSNIGAGYDVHWYQQLPGTAPKLLIYGDSNRPSGVPDRFSGSGSGTSASLAITGLQAEDEGDYYCQSFDSNLSRYVFGAGTKLTVL
notes: His-tagged
As for B10, the cell binding in experiment [6] came out at 532000; in experiment [9] it was 32000; in experiment [10] it was 80500. Further, the Kd in experiment [7] was determined as 44.7 nM. The “anti His/HRP” value in experiment [8] stood at 2.29. In experiment [11], the strep/HRP came out at 1.42.

B11: 15F8 (antibody, V domains shown)
VH: EVQLVESGGGVVRPGGSLRLSCAASGFTFDDYGVSWVRQAPGRGLEWVSGINWNGGSTAYADSVKGRFTISRDSAKNSLYLQMDSLRAEDTALYYCAREEGSYYVWYFDIWGRGTLVTVSS
VL: DIQMTQSPSSLSASVGDRVTITCRPSQSISNYLNWYQQKPGKAPKVLIYASFILQSGVPSRFGGSGSGTDFTLTISSLQPEDFATYYCQQSYSNPFTFGPGTKVDIK
notes: alloy mouse hybridoma antibody; also called 15F8D8; 15F8D9
As to B11, the cell binding in experiment [1] stood at 213000; in experiment [2] it was 85100; in experiment [3], 234000.

B12: 9A1 (antibody, V domains shown)
VH: QVQLVQSGAEVKKPGASVKVSCKASGYSFTGYYMHWVRQAPGQGLEWMGWINPKSGGTSYAQQFQGRVTMTRDTSMSTVYMELTRLRADDTAVYYCARLYYSGWYGDYWGQGTLVTVSS
VL: DIQMTQSPSSLSASVGDRVTITCQASQDINNYLNWYQQKPGKVPNLLIYDASNLETGVPSRFSGSGSGTDFTFTISSLQPEDIATYYCQQYNNPPITFGQGTRLEIK
notes: alloy mouse hybridoma antibody; also called 9A1H6
As for B12, the cell binding in experiment [1] was determined as 324000; in experiment [2], 139000; in [3] it was 401000.
